No end group written: not given here.
Key:
[1] = Cyclic voltammetry, midpoint potential; format: physicochemical; conditions: pH 10, measured immediately after generation
Protocol: Electrochemical data were collected. A 3 mL sample of 3 mM Ni-NCC was prepared in 50 mM sodium borate at pH 10. CV data were collected with a CH1812C Electrochemical Analyzer potentiostat (CH Instruments) with a three-electrode setup (platinum working electrode, Bioanalytical Systems, Inc.; Pt auxiliary electrode; Ag/AgCl reference electrode) in a glass CV cell. Potential was applied from zero to 1.2 V with a scan rate of 0.2 V per second, and current was measured. The same experiment was attempted on a 3 mM Ni-NCC sample in 50 mM potassium phosphate at the same pH. The sample was incubated for 24 hours and analyzed again.
Electrochemical data were collected as previously described. 3-mL samples of 3 mM Ni-GGNCC (SEQ ID NO. 1) and Ni-GGGCC (SEQ ID NO. 3) were prepared in 50 mM potassium phosphate at pH 7.4. After incorporation, pH was raised to 10 to observe more intense signal. Cyclic voltammetry (CV) data were collected with a CH1812C Electrochemical Analyzer potentiostat (CH Instruments) with a three-electrode setup (platinum working electrode, Bioanalytical Systems, Inc.; Pt auxiliary electrode; Ag/AgCl reference electrode) in a glass CV cell. Potential was applied from zero to 1.2 V with a scan rate of 0.2 V per second, and current was measured.

[2] = Ni-SOD xanthine/xanthine oxidase coupled assay (superoxide scavenging); format: biochemical; conditions: cytochrome c, absorbance at 550 nm, reaction buffer pH 7.8
Protocol: Ni-SOD activity was determined, except Ni-NCC was generated in situ using one equivalent NiSO4. Ni-NCC was aged for 0-120 minutes, and the Ni-SOD activity was determined using the standard xanthine/xanthine oxidase method developed by Crappo and coworkers. All reagents were generated in 50 mM potassium phosphate, 100 μM EDTA reaction buffer at pH 7.8 except for Ni-NCC, which was generated in 50 mM potassium phosphate, pH 7.4. 600 μM cytochrome c from bovine heart (Sigma), 300 μM xanthine (Sigma) and enough xanthine oxidase from buttermilk (Sigma) to cause a change in absorbance at […] of 0.02-0.04 AU per minute were added to a final volume of 300 μL with reaction buffer. The change in absorbance at 550 nm was monitored on a Cary 100 UV-Visible spectrophotometer (Varian). The assay was performed with 100 μM Ni-NCC.
Superoxide scavenging activity was determined as reported previously, except Ni-peptides were generated in situ using one equivalent of NiSO4. Superoxide scavenging activity of Ni-GGGCC (SEQ ID NO. 3), Ni-GGNCC (SEQ ID NO. 1), Ni-GNNCC (SEQ ID NO. 4), and Ni-GNGCC (SEQ ID NO. 5) was determined using the standard xanthine/xanthine oxidase method developed by Crapo and coworkers. […] The change in absorbance at 550 nm was monitored on a Cary 100 UV-Visible spectrophotometer (Varian).

[3] = Photopolymerization of hydroxy ethyl methacrylic acid (HEMA), rate by FTIR; conditions: light 550 mW cm-2 for 40 seconds
Protocol: Photopolymerization of hydroxy ethyl methacrylic acid (HEMA) was initiated using a visible light-curing unit (Spectrum® 800, Dentsply, Milford, Del., USA) at an intensity of 550 mW cm-2 for 40 seconds. The subsequent rate of polymerization was measured via FTIR and is reported as a normalized ratio of peak intensities from unreacted and reacted monomer (1455 cm^−1 and 1673 cm^−1). The rate of polymerization was altered by the addition of Ni-NCC and Ni-GGNCC (SEQ ID NO. 1). See FIG. 31, illustrating the percentage of polymer remaining over time.

Row | Substance | midpoint potential [1] | IC50 [2] | effect on rate of polymerization [3]
1 | Ni-GGGCC: nickel complex of pentapeptide GGGCC (SEQ ID NO. 3) (cysteine pairing not given here; also: nickel complex) | 0.78 V vs Ag/AgCl | – | –
2 | XXLLL-GGNCC (not fully specified (N-terminus); cysteine pairing not given here; also: metallated with nickel) [Ni-GGNCC] | 0.8 V vs Ag/AgCl | 9.1 µM | slowed the rate of polymerization
